This passage reports Kd results from patent CN110407938A (BEIJING JOINN BIOTECHNOLOGY CO LTD, dated 2019).

The assay deals with T1, TIM-3 (分析物, SPR analyte).
T1 construct: also called TIM-3抗原; 分析物(TIM-3)
The assay is described as follows: SPR (Biacore T200), 25°C; antibody captured by anti-human IgG Fc on a CM5 chip, TIM-3 as analyte at 0-100 nM, 1:1 binding model.

T1 sequence (Q8TDQ0 22-202): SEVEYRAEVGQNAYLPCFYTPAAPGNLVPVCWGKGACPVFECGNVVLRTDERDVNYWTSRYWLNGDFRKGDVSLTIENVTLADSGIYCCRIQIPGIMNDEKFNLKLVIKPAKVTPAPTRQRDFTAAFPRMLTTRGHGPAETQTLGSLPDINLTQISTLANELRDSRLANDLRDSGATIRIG

B1: 抗TIM-3抗体 (anti-TIM-3 monoclonal antibody of the invention) (antibody, V domains shown)
VH: QVQLQESGPGLVKPGETLSLTCAVSGGSFSRGGYYWNWIRQPPGKGLEWIGYIYYSGSTNYNPSLKSRVTISLDTSKNQFSLKLSSVTAEDTAVYYCARDHYTSSYNYDYWGQGTLVTVSS
VL: EIVLTQSPATLSLSPGERATLSCRASESVQSYIAWYQQKPGQAPRLLIYNASQRSTGIPARFSGSGSGTDFTLTISSLEPEDFAVYYCQQRFSWPPTFGQGTKLEIK
notes: The variable regions were cloned into the ZY-CDMO vector and expressed in CHO cells; The antibody was purified on Protein A, captured by an anti-human IgG Fc antibody and detected with goat anti-human-HRP, so it carries a human IgG Fc; It came from a phage antibody library; also called 抗TIM-3单克隆抗体; 本发明抗TIM-3抗体
B1 came in with a Kd of 6.41 nM.
